B1: CCDC6 (parent)
chain: FTPPTSLTRAGMSYYNSPGLHVQH

Variants of: B1
Assay: protein stability index of a GFP-peptide fusion (GPS, HEK-293T) (PSI 1-6); higher = more stable
Details: c terminus: a fixed tail appended
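Note: lentivirally expressed fusions sorted by FACS into six bins by GFP to DsRed ratio, PSI derived from sequencing read proportions per bin multiplied by bin number.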

Protein stability index: each site, then its substitutions
A10: M 1.9 | Q 2 | S 2.06 | W 3.03 | P 1.91 | L 1.2 | N 2.23 | H 2.09 | T 1.68 | V 1.98 | F 2.33 | R 2.22 | K 2.01 | E 2.15 | I 1.75 | D 1.37 | Y 2.72
N16: P 1.89 | H 2.12 | C 2.06 | I 1.98 | L 2.09 | F 1.33 | Q 1.94 | K 1.95 | M 1.89 | E 1.62 | A 2.42 | D 2.33 | G 1.53 | R 1.42
R9: M 1.81 | Q 2.54 | K 1.71 | F 2.94 | A 2.1 | C 2.58 | G 1.59 | L 2.82 | Y 3.32 | N 1.65 | T 1.47 | D 2.77 | S 1.79 | H 1.27 | I 1.45 | V 1.58 | E 2.63
G11: F 1.68 | D 1.75 | E 1.84 | Q 1.98 | Y 2.12 | H 1.69 | M 1.91 | I 1.49 | T 2.17 | S 2.23 | C 1.71 | A 1.96 | L 1.97 | R 1.68 | K 1.19 | N 2.46 | V 1.56
S13: C 1.55 | D 1.43 | P 1.96 | V 1.97 | H 1.67 | W 1.3 | A 2.18 | I 1.69 | T 1.39 | K 2.11 | F 2.54 | Y 1.86 | M 1.34 | R 1.87 | G 1.39 | N 1.77 | E 1.9 | L 1.73
